15 sequences from the DeepSol protein solubility set can be followed below.

The nature of the data set: soluble on expression in E. coli; label from the status in PepcDB or PDB records.
For “MSLATAAPFVSDQAEAKGFVEGSTLDLKLRNYYYNRDRKNNPAPGGRSDKDWTQGIWANFSTGYTQGTIGVAAEAFGYGALRLWGPDKYSGSGNLVTDSNGDNEATQGKFGGAVKFRVSKTELKVGDMQPTSPVFAVGGSRILPQTASGLSLQSSEIAGLDLEAGHFYSGTSQDDTSHNGSIWATYANGFNGLKANSADFLGGKYAITDGLGVAFYAAKLEDIWDQYYGNVNYALPLGNDQSLAFDVNLYRTLDEGSSKADSINNTTYSASAAYSFLAAHTVTVAYQKVDGDTPFDYIGIGDNNRGGDSIFLANSVQYSDFNGPGEKSWQIRYDLNMTPYGVPGLSFMTRYLNGDNIDGTKVDASSLYANMYGADGKHHETNLEAKYVVQAGPAKDLSFRMRQAWHRGNDAQSDGDVNEFRLIVDYPISILKGIITITTDPNSSSVDKLAAALEHHHHHH”, the “soluble on expression in E. coli” value is listed as “soluble”. The value for “MGSDKIHHHHHHMKKLVVRADDIGYSEGVTLGIISSYKNGIVTSAGIMVNMPFSRQAIEMVKNDDVCFGLHVNLVIGEPCCKEHIKIKNLLDEGGKFVSSKIRRTQLLTGKEVFNYEEVYEEVCAQIETYKLYMSKLPEYIDIHGIEEDVSISAMCDAAKEYGIPSCPYYLDSCISMPSKYPQNDFYKLNKSFVKLFEEKYINLDKDITLMVTHPGFIDYSLIKSSSLIQERVYEHAMLCDKEVKMWLKRNNIELVDFKDIFKSNNYI” was “not soluble”; that for “MAHHHHHHMMSTYMTRYDYDYNRDPSLTGSDGGSGGGFEQEISGEVRNRPIFAYGVDTGDRDDRTIYQVDYTHKDRSVKNMAGLAATLKGSAASAAAARMRGQDNGTAYQHNWYLPAASAHVVLVDGSHPHTVYQDDYQAPRHVAGGAVHDPVCYAGAAAAAYNADLLKPHGVMEDDGADLAPKITSKESLLPRKHASPNATWTPVFENTADHRHTWNDCVPGDGVVGTYVCTSWDYGDTSQAHPLQLPLSLARSLAAHNLDASANPDKAALLRHLAGKNYSSRTLRGSSSGAPLDTNDRTNPQFLSTVEQKRCAVSRRLEKEHYVTMSIYKSDFIDQGLLPELPGNPGGPADVRDTHTSPLATAGEMMAGQLTTATRELGLLRNAHGTLKSGEAHAASRVSTGVLSAMRAMEKAASIDKADPHCHKLCE” was “not soluble”. Take “MSYVIDRRLNGKNKSTVNRQRFLRRYRDHIKKAVEEAVSRRSITDMEHGEQISIPGRDIDEPVLHHGRGGKQTVVHPGNKEFTTGEHIARPQGGAGGKGPGKAGNSGEGMDEFSFQITQEEFLEFMFEDLELPNLVKRNLTGTDTFKTVRAGISNEGNPSRINIIRTLRSAHARRIALSGSSRAKLREATSELERIKREEPDNFGDIQALEVEIDRLKARIRRVPYLDTFDLKYNLLVKQPNPSSKAVMFCLMDVSGSMTQATKDIAKRFFILLYLFLKRNYDKIDVVFIRHHTSAREVDEEEFFYSRETGGTIVSSALKLMQEIMAARYPSSDWNIYAAQASDGDNWNDDSPICREILTKQIMPFVQYYTYVEITPREHQALWYEYERIGDDFADTFAQQQLVSAGDIYPVFRELFQRRLVSAAALEHHHHHH”: the “soluble on expression in E. coli” value is “not soluble”. The value for “MEQQIQMDEQENDESQGNDDQQNMSMSSSELHTMQDDHPGILLKTNTRMSITVKKLHVCGEWKWLQGGEDTCGICRMEFESACNMCKFPGDDCPLVLGICRHAFHRHCIDKWIAAPTNQPRAQCPLCRQDWTIVE” was “not soluble”; that for “MALKGEGLQGLLGRGEARLGVGGEEAFQVKGGLLAEPRHGRMGSPVGVQGDLARGVGEGVLPGEHPVEDDPGGVDVSLGARGQAPDELGGQVGGGAQEKGLLETLLGGAREVKVQEAGLPGVHQDVLGLHVPVDQALFVHVGEGEEELVEDPHRLGKRGAFPHPAAELLPRGVGQEEGGAFLQVQGLEDGVEVGVGEPSPHPKLPVPAGAGLRGEELEGVGGAEGVKGQVDPGQGPAGQGPHHPVAAREGFAHQAHRPHYTLRKPGYHGPMRGLVLSGGGARGFAHIGALEVFVEAGLDFEVVAGASMGAIVGALFAAGRSPQEILEIARNTPWLGILGFSFREALFSRGRLRRYLAEHLPQDFADLKRRLVVTAVEVRSGRVVYLFQGDLVSAVLASAAHPLLLRPVRREGLLLFDGGVLDNLPVDAARFLGAEEVWAVDVTPERSVEKPPEGVLGLALRAVDLMQHHLTASRMALYAPEVYLRPELGEVAVQDFLRLEEAVEAGRKAAKRFLESRVGEV” was “soluble”; that for “MSLSKKRAGAMKNYGAGDQFKATKALTFTILHNDMPTYPMKRDWLFWKEVTERTGVTLKPTSVPASDYDKKRSLLIGAGDAPLLIPKTYPGQETAFVSSGAILPVSEYVRLMPNFRAKVEKWGLEGDLDSIRQADGNYYVLPGLHEKVKSGYSLSFRTDVLKKHGLDLPTTWDQVYDVLKALKAAYPDVYPFSDRWGQPTPGGALLNYLGPAFGTKAGWSYANTAWDTKARKYVFTGATDEYRQMLEYLRKLVAEKLMDPESFTQSDDDAVRKLLSGKSFVISANPQELVQNYRYNLGKQVKGATIEMIPVPIGPTGEVIVGSRLENGLMVAGRAAEGDSFVAMMQFVDWLWYSDGGQEFAKYGVEGVTYTSSGAGRYKVADGISYMGSDPSAPKDLQKDYGFTNGEFAYGGSWALVSSSFSPDEKAFQDAMAGRKLLPVDPAHPLKADEQEQATLWDTPLKDHVTQNTLKFALGKRPMSEWDAYLAELKAKNMQRYIDLHNTAYERFKKEHEGHHHHHH” was “soluble”. For “MGSDKIHHHHHHMAIGIVIASHGEFAAGIHQSGSMIFGDQEKVQVVTFMPSEGPDDLYAKFNDAIAAFDADDEILVLADLWSGSPFNQASRVMEENSDRKFAIITGLNLPMLIQAYTERMMDAAAGVEQVAANIIKEAKDGVKILPEKLQPQEEAPTTSTKKAAPQGAIPEGTVIGDGKLKINLARVDTRLLHGQVATNWTPASKADRIIVASDTVAKDELRKGLIKQAAPGGVKANVVPIKKLIEAAKDPRFGNTHALILFETPQEALEAIEGGVPITELNIGSMAHSTGKTMVNNVISMDKDDVATFEKLRDLGVKFDVRKVPNDSQKDLFELIEKAHVQ”, the “soluble on expression in E. coli” value is “not soluble”.

With “GPGSMIIWAVGTTNKAKLDSVDIAVRMCFPSYQHDVRPVAVLSIVRAQPISAEESQQGAQHRAHEALSLVPEAHYGVGLEGGLEKISDRWFECGWMYVIERSTGRCGIGSSARFEMSQKLMSKILDEGKELAEVMDEMTGETDVRSGQGAMGVLTAGYLNRAESYSHGLIFALAPFLSDHKYWD”, the “soluble on expression in E. coli” value is on record as “not soluble”. The value for “MEKDHSSLFYYDQYSKFSRSSQGCRSLNKFSRFNNFRTSACFFDASKPKSDVQPFKKIRYSSEHGCLTMSFDSPSSCPSTSFLCDLSQNLVRGNAHIPKFYTRDLISTIGSRDHYSVDLIPKFGENTSIMKDFKDWGTDLSLQM” was “not soluble”; that for “MEGNFSNRVQDVIRLSREEALRLGHDYIGTEHLLLGLIREGEGIGAKILKNLKVDLFQLKQKIEENTHPKVPATQMGNVPLTKQAEKVLKITYLEAKICKSTIIGTEHLLLSILKGDDNIAAQILEQFGVTYDQVRDELMTITT” was “not soluble”. In the case of “ITTKKGQEGKPAINVRTEFGFTAPTKRPEMINSAQWAELYNEASGTNYYSPEVIQKYRDHSDPDLYPDVDWFDALFDDMAENQRVNLSVTGGGDNIKYYVSGSFYNESSIYKNAGNIYGYNSAIRYNKFNFRANVDLNVTKSTTLNVNLANIYEKSFGPGFGDNDNDIWSYTFNASPNAFPVQYSDGTLSGPSTDSGHNPWNMLVHSGYREQFWNSAQSLIGLTQDFGKIWEPLEGLTANIKFSWDAWNTTLQRRSKSPSFYHARGRDAEGRLMYDDNNNDGEWDPVHTGSESLGYEIGRQGTMTRYLEGSLNYNRLFGNHRVGALFLYNQKIHTNTQAADGNAALPYKNQGLAGRVTYAFRDTYFAEVNMGYNGSENFARGHRFGFFPAFALGWMVSNEKWFEPLTKTIDMLKLKGSYGKVGNDDIGGQRRWVYESTIVGTGDQGWWFGQSGNQGGAGIRVGEIENLYASWEEATKLNLGVEFSLFNKVKVQADYFREERQGIFLQRAGLPAIVGLSTIPYVNIGRTLNKGFDANVEYNHQIGKVFLTARGNFTFSRNKLLDNDEPDWEYKYQNRIGKPFGSDGQMQPFGLVALGLFQSQEEIDNSPRQTFGEYRVGDIKYQDINGDGIIDTQDEVAIGYTNLPEIMYGFGLGAQWKNWDINAFFQGSAHTSFFLDGVSVKSPFSSGNMERAAINKDLWGKVWMSTNSPEQNAHVTYPRLSNGSGGAGASNNNKNSTWWLRNGSFLRLKNIEIGYTLPKEFVTKTFIKSLRFYVSGNNLLTFSSFKLWDPEKAKGSSDGSGYPLNRVVTVGFNANF”, the “soluble on expression in E. coli” value was “not soluble”. Consider “MGSDKIHHHHHHSDDINQKVAEQLAQKAQSSSLGYDIVESLTVEVGPRLAGSEQDKVAVDWAIAKLQSLGFDRVYKEPVTVPVWRRGIAKASILSPFPQPLVVTALGGSIATPAQGLSATIVRFDTLQDLQNAEAGSLNDKIAFIDAKTERHRDGKGYGQTASGRSRGAVAAAEKGAVGIIIRSIGTDHDRMAHTGMMRYEEGVTAIPAAAISNPDADLINAMLKRDKEVVISLELGSERRGETTSYNVIAEVKGSTKADEIVLIGAHLDSWDEGTGAIDDGAGVAIVTAAAKHILDLPQKPERTIRVVLYAAEELGLLGGKTYAKEHEAELEKHYIAAESDFGAGPIYQIDWRVADTAHSPVINAMKVAEPLGVAAGNNKASGGPDVSMLPALGVPVASLRQDGSDYFDYHHTPNDTLDKINPEALAQNVAVYAQFAWVMANSKVELRPLPPKE”, for which the “soluble on expression in E. coli” value is on record as “not soluble”.

As to “MSFFFLEVLTYFDYDSSMTIKAEIKALAKEIGISKIGFTTADNFDYLEKSLRASVEEGRNSGFEHKVIEDRIYTERLLESAKTIISIGVAYPHKLPQQPQKTPYKRGKITPSSWGLDYHYVVGEKLDRLSKGIEELCRDFPLQQKAMVDTGALVDTAVAQRAGIGFIGKNGLVISKEYGSYMFLGELITNLEIEPDKPVDYDCGDCRRCLDACPTSCLIGDGSMNAKRCLSFQTQDKGMMDIEFRKKIKTVIYGCDICQICCPYNKGINNSPATEIDPELAQPELIPFLSLSNGKFKEKFGMIAGSWRGKNILQRNAIIALANAHDKTAVVKLIEIIDKNNNPIHTATAIWALGEIVKKPNDEILAFMSHLTLKDEDSRKELELIRHKWQF”, the “soluble on expression in E. coli” value is on record as “not soluble”. Then “MAHHHHHHMVPVKVKWGRETFELTVDLRSTVKCFKEQLQQLTSVPVERQKIMGVKASQCNDNEVTLEAAGVAAGKTLMLIGTAAEVVRATPIVATGNKDSAVQAPASHPAEKQAVGLQNIANTCYMNAAVQMLRLVPEVRDVLNFNANDPIVSELLKLYNTMDTKRDPVVPASLWSILLAHFPTFAEVNEKGHPMQHDSQEALNALLQRINSCLPESHKRLFTGNLSQKMVCKDDPDDQPVLHDVPFLMLSCNIDAEIETLEAGLEAAFNETVKLHSEKLAREALHTRTSRIAAMPEYLFIHMVRFSWRSDIQSKAKILKPVTFPMTLDLHALCAEEYKPELEVERKRVLKRRDIEMERRRAAKNKTKLDDDEAAPAEDASNTAEPINTTVGNHSGYYELCGVISHKGRSADSGHYVFWGKYADQWMVLDDSNTAAVSEEDVKRLRGSGEAHIAYVLMYRSRDPRTKQSVIPL”, with “soluble”.
